From patent US20210163604A1 (MITSUBISHI TANABE PHARMA, published 2021)

Assays:
[1] = target: T1, human cMET (human, UniProt P08581 25-932, limits assumed); experiment: SPR (Met Binding KD)
T1 construct: also called hMET; HGFR

[2] = target: T1, human cMET; experiment: ELISA on human cMET, ratio against the parental antibody
[3] = target: T2, rat cMET (rat, UniProt P97523 25-935, limits assumed); experiment: ELISA on rat cMET, ratio against the parental antibody
T2 construct: also called rMET

[4] = target: T3, monkey cMET (Macaca fascicularis, Cynomolgus Macaque) (Cynomolgus Macaque (Macaca fascicularis), UniProt A0A2K5UM36 25-932); experiment: ELISA, species cross-reactivity, antibody titrated on cynomolgus cMET; x axis printed -8 to 2 with ug/mL (log10)
T3 construct: also called Cyno cMET; NHP

[5] = target: T1, human cMET; experiment: ELISA, species cross-reactivity, antibody titrated on human cMET; x axis printed -8 to 2 with ug/mL (log10)
[6] = target: T4, Recombinant Human c-Met-10x His (human, UniProt P08581 25-932); experiment: MET Binding ELISA on plate-bound human cMET, direct binding; the half-maximal value is printed as IC50
T4 construct: Made in-house
Source text: Relative binding strength is indicated by luminescence (y-axis).

T1 sequence (P08581 25-932 limits assumed): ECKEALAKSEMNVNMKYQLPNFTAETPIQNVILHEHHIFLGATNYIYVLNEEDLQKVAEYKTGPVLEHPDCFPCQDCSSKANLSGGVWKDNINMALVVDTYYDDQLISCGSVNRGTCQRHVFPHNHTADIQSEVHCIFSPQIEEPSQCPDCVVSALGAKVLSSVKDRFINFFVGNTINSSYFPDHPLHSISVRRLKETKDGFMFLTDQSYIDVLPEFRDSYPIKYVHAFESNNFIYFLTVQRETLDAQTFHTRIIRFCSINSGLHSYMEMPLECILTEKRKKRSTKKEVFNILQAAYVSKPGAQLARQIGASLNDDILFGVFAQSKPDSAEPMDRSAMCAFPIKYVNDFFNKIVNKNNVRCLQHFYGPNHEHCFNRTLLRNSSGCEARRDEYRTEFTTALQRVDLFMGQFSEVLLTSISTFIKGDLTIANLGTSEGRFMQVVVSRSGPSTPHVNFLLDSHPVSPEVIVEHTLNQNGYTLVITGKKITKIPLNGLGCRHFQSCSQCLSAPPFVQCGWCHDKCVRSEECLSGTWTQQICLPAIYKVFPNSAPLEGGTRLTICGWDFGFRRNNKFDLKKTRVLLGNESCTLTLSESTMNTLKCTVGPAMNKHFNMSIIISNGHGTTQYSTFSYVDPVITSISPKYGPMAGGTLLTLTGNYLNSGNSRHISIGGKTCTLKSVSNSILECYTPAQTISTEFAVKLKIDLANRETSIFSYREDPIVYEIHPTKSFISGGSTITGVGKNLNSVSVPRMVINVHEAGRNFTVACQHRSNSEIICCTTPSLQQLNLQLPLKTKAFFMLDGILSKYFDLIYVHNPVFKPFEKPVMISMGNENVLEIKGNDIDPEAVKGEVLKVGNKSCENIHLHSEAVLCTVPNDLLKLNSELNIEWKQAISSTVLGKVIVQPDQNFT
T3 sequence (A0A2K5UM36 entry or part of it limits assumed): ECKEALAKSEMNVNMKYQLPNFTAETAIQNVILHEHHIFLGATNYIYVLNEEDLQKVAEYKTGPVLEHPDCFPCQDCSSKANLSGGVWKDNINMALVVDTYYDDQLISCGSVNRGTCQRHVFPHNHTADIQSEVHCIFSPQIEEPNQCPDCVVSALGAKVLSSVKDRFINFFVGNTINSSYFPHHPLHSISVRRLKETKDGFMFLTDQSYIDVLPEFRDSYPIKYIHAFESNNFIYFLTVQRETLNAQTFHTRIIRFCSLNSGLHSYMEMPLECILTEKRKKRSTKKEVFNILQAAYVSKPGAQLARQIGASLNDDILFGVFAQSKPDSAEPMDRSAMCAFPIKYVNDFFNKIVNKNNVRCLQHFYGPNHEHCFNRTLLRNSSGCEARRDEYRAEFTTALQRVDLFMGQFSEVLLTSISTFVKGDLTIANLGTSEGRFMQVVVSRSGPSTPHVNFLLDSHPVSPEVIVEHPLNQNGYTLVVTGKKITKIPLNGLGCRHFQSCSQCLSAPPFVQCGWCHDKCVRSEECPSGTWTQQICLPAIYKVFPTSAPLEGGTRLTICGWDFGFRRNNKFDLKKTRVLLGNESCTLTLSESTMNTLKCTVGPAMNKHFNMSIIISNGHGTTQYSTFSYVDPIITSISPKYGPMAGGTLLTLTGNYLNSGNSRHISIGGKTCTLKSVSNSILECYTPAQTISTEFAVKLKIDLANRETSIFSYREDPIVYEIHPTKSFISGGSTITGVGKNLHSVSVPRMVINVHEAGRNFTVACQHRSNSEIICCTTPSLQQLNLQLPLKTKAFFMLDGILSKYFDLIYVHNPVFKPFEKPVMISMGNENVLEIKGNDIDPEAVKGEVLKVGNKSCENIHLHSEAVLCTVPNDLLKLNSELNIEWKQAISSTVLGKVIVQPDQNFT
T4 sequence (P08581 other isoform, or with tags, fused parts or gaps limits assumed): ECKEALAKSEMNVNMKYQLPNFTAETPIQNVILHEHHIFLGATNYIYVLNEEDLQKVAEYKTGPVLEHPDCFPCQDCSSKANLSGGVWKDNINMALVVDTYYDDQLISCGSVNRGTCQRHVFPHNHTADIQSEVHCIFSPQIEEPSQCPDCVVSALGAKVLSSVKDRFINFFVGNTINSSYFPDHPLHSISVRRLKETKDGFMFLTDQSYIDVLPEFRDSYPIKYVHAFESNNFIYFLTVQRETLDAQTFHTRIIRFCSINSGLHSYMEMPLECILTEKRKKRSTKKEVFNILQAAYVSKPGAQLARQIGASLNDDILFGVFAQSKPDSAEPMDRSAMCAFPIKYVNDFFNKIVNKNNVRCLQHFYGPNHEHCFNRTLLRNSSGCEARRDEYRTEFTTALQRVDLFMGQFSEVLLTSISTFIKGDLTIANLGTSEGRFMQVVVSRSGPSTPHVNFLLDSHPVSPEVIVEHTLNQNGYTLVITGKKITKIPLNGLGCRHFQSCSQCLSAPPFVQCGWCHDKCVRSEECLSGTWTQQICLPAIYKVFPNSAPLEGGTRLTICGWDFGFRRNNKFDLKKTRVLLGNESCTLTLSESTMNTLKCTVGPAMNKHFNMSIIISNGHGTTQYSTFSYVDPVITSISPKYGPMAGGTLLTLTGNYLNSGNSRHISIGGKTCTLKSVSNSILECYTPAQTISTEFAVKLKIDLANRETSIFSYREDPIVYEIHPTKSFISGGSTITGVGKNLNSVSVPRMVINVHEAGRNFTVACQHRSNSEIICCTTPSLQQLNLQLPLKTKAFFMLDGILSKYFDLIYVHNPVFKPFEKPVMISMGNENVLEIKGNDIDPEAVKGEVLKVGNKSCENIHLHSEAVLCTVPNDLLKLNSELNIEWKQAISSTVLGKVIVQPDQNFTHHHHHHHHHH
T2 sequence (P97523 25-935 limits assumed): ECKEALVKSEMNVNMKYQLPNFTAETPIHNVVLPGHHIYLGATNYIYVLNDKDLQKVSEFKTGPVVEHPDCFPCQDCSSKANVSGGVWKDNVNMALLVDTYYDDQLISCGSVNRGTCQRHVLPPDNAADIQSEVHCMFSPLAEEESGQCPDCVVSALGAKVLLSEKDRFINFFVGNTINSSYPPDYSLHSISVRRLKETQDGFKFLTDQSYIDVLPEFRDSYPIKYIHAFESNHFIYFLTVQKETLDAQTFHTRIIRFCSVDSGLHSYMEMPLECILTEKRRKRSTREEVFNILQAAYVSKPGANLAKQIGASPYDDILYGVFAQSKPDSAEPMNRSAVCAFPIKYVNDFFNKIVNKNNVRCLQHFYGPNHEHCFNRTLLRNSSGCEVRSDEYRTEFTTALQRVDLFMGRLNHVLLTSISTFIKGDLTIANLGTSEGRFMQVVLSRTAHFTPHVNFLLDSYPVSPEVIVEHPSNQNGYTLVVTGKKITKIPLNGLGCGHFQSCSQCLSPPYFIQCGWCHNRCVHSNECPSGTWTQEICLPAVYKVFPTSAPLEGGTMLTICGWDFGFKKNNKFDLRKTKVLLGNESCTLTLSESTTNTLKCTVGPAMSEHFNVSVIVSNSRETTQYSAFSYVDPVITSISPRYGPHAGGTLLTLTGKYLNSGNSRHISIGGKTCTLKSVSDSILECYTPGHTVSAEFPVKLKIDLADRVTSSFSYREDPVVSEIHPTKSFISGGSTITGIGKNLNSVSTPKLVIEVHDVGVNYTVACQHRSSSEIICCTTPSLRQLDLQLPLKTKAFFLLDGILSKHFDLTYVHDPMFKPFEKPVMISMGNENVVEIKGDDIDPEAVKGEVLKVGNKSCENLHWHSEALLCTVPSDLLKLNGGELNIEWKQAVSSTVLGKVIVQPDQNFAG

| Molecule | ELISA hMET vs parental [2] | ELISA rMET vs parental [3] | also measured |
| --- | --- | --- | --- |
| 5D5 (agonist Met-mAb antibody, agonist positive control) | – | – | Kd [1]: 850 pM |
| humanized P3D12 antibody, HC SEQ ID NO: 108 (P3D12 VH-cdr) / LC SEQ ID NO: 49 (P3D12 VL-cdr) (antibody, V domains shown) VH: QVQLVQSGAEVKKPGASVKVSCKASGYTFTSYWMHWVKQAPGQGLDWIGYIKPSTDNTEYNQKFKDKATLTADKSTSTAYMELSSLRSEDTAVYYCARSYGNYPLMDYWGQGTTVTVSS VL: QIVLTQSPATLSLSPGERATLSCSASSSVTSNYLYWYQQKPGSSPRLLIYSTSNLASGVPARFSGSGSGTSYTLTISRLEPEDFASYFCHQWSSYPPTFGSGTKLEIKR | 1 | 2 | – |
| humanized P3D12 antibody, HC SEQ ID NO: 105 (P3D12 VH-fra) / LC SEQ ID NO: 48 (P3D12 VL-abb/sdr) (antibody, V domains shown) VH: QVQLQQSGAEVKKPGASVKVSCKASGYTFTSYWMHWVKQRPGQGLDWIGYIKPSTDNTEYNQKFKDRVTLTADKSTSTAYMQLSNLISEDTAVYYCARSYGNYPLMDYWGQGTSVTVSS VL: QIVLTQSPATLSLSPGERATLSCRASQSVTSNYLYWYQQKPGSSPRLLIYSTSNLASGVPARFSGSGSGTDYTLTISRLEPEDFASYFCHQWSSYPPTFGSGTKLEIKR | 1.8 | 3.8 | – |
| humanized P3D12 antibody, HC SEQ ID NO: 105 (P3D12 VH-fra) / LC SEQ ID NO: 49 (P3D12 VL-cdr) (antibody, V domains shown) VH: QVQLQQSGAEVKKPGASVKVSCKASGYTFTSYWMHWVKQRPGQGLDWIGYIKPSTDNTEYNQKFKDRVTLTADKSTSTAYMQLSNLISEDTAVYYCARSYGNYPLMDYWGQGTSVTVSS VL: QIVLTQSPATLSLSPGERATLSCSASSSVTSNYLYWYQQKPGSSPRLLIYSTSNLASGVPARFSGSGSGTSYTLTISRLEPEDFASYFCHQWSSYPPTFGSGTKLEIKR | 1.7 | 2.3 | – |
| humanized P3D12 antibody, HC SEQ ID NO: 108 (P3D12 VH-cdr) / LC SEQ ID NO: 46 (P3D12 VL-ven) (antibody, V domains shown) VH: QVQLVQSGAEVKKPGASVKVSCKASGYTFTSYWMHWVKQAPGQGLDWIGYIKPSTDNTEYNQKFKDKATLTADKSTSTAYMELSSLRSEDTAVYYCARSYGNYPLMDYWGQGTTVTVSS VL: QIVLTQSPATMSASPGERVTLSCSASSSVTSNYLYWYQQKPGSSPRLWIYSTSNLASGVPARFSGSGSGTSYTLTISRMEPEDAASYFCHQWSSYPPTFGSGTKLEIKR | 1.1 | 1 | – |
| F6B1P3D12 mouse monoclonal anti-cMET antibody (antibody, V domains shown, Mouse hybridoma antibody) VH: QVQLQQSGAELAKPGASVKMSCRASGYTFTSYWMHWVKQRPGQGLDWIGYIKPSTDNTEYNQKFKDKATLTADKSSSTAYMQLSSLTSEDSAVYYCARSYGNYPLMDYWGQGTSVTVSS VL: QIVLTQSPAIMSASPGEKVTLTCSASSSVTSNYLYWYQQKPGSSPKLWIYSTSNLASGVPARFSGSGSGTSYSLTISSMEAEDAASYFCHQWSSYPPTFGSGTKLEIKR | – | – | EC50 (read off the curve) [4]: ~0.2 µg/mL; EC50 (read off the curve) [5]: ~0.2 µg/mL |
| hD12-IV (antibody hD12 attached to the payload of chemical formula IV, stochastic conjugation) (antibody, human IgG2, kappa, V domains shown, payload possibly on cysteines (random positions); payload of chemical formula IV linked through maleimide to cysteine thiols at random positions, Antibody-drug conjugate; also called hD12-vc-IV) VH: QVQLVQSGAEVKKPGASVKVSCKASGYTFTSYWMHWVKQAPGQGLDWIGYIKPSTDNTEYNQKFKDKATLTADKSTSTAYMELSSLRSEDTAVYYCARSYGNYPLMDYWGQGTTVTVSS VL: QIVLTQSPAILSLSPGERATLSCSASSSVTSNYLYWYQQKPGSSPKLLIYSTSNLASGVPARFSGSGSGTSYTLTISSLEAEDAASYFCHQWSSYPPTFGSGTKLEIKR | – | – | IC50 [6]: 0.058 µg/mL |
| hD12-II (antibody hD12 attached to the payload of chemical formula II, stochastic conjugation) (antibody, human IgG2, kappa, V domains shown, payload possibly on cysteines (random positions); payload of chemical formula II (pyrrolobenzodiazepine toxin and linking group) linked through maleimide to cysteine thiols at random positions, also called hD12-vc-II) VH: QVQLVQSGAEVKKPGASVKVSCKASGYTFTSYWMHWVKQAPGQGLDWIGYIKPSTDNTEYNQKFKDKATLTADKSTSTAYMELSSLRSEDTAVYYCARSYGNYPLMDYWGQGTTVTVSS VL: QIVLTQSPAILSLSPGERATLSCSASSSVTSNYLYWYQQKPGSSPKLLIYSTSNLASGVPARFSGSGSGTSYTLTISSLEAEDAASYFCHQWSSYPPTFGSGTKLEIKR | – | – | IC50 [6]: 0.052 µg/mL |
| F6B1P1E2 mouse monoclonal anti-cMET antibody (antibody, V domains shown, Mouse hybridoma antibody) VH: QVQLQQSGAELAKPGASVKMSCKASGYTFTSYWMHWVKQRPGQGLEWIGYINPSTDYTEYNQKFKDKATLTADKSSTTAYMQLSSLTSEDSAVYYCVRSYGNYPLMDYWGQGTSVTVSS VL: QIVLTQSPAIMSASPGEKVTLTCSASSSVSSNYLYWYHQKPGSSPKLWIYSTSNLASGVPVRFSGSGSGTSYSLTISSMEAEDAASYFCHQWSSYPPTFGSGTKLEIKR | – | – | EC50 (read off the curve) [4]: ~0.2 µg/mL; EC50 (read off the curve) [5]: ~0.2 µg/mL |
| hD12-XI (antibody hD12 attached to the payload of chemical formula XI, stochastic conjugation) (antibody, human IgG2, kappa, V domains shown, payload possibly on cysteines (random positions); payload of chemical formula XI linked through maleimide to cysteine thiols at random positions, Antibody-drug conjugate; also called hD12-vc-XI) VH: QVQLVQSGAEVKKPGASVKVSCKASGYTFTSYWMHWVKQAPGQGLDWIGYIKPSTDNTEYNQKFKDKATLTADKSTSTAYMELSSLRSEDTAVYYCARSYGNYPLMDYWGQGTTVTVSS VL: QIVLTQSPAILSLSPGERATLSCSASSSVTSNYLYWYQQKPGSSPKLLIYSTSNLASGVPARFSGSGSGTSYTLTISSLEAEDAASYFCHQWSSYPPTFGSGTKLEIKR | – | – | IC50 [6]: 0.103 µg/mL |
| hD12-VI (antibody hD12 attached to the payload of chemical formula VI, stochastic conjugation) (antibody, human IgG2, kappa, V domains shown, payload possibly on cysteines (random positions); payload of chemical formula VI linked through maleimide to cysteine thiols at random positions, Antibody-drug conjugate; also called hD12-vc-VI) VH: QVQLVQSGAEVKKPGASVKVSCKASGYTFTSYWMHWVKQAPGQGLDWIGYIKPSTDNTEYNQKFKDKATLTADKSTSTAYMELSSLRSEDTAVYYCARSYGNYPLMDYWGQGTTVTVSS VL: QIVLTQSPAILSLSPGERATLSCSASSSVTSNYLYWYQQKPGSSPKLLIYSTSNLASGVPARFSGSGSGTSYTLTISSLEAEDAASYFCHQWSSYPPTFGSGTKLEIKR | – | – | IC50 [6]: 0.036 µg/mL |
| humanized P3D12 antibody, HC SEQ ID NO: 105 (P3D12 VH-fra) / LC SEQ ID NO: 46 (P3D12 VL-ven) (antibody, V domains shown) VH: QVQLQQSGAEVKKPGASVKVSCKASGYTFTSYWMHWVKQRPGQGLDWIGYIKPSTDNTEYNQKFKDRVTLTADKSTSTAYMQLSNLISEDTAVYYCARSYGNYPLMDYWGQGTSVTVSS VL: QIVLTQSPATMSASPGERVTLSCSASSSVTSNYLYWYQQKPGSSPRLWIYSTSNLASGVPARFSGSGSGTSYTLTISRMEPEDAASYFCHQWSSYPPTFGSGTKLEIKR | 1.7 | 1.2 | – |
| hD12-VII (antibody hD12 attached to the payload of chemical formula VII, stochastic conjugation) (antibody, human IgG2, kappa, V domains shown, payload possibly on cysteines (random positions); payload of chemical formula VII linked through maleimide to cysteine thiols at random positions, Antibody-drug conjugate; also called hD12-vc-VII) VH: QVQLVQSGAEVKKPGASVKVSCKASGYTFTSYWMHWVKQAPGQGLDWIGYIKPSTDNTEYNQKFKDKATLTADKSTSTAYMELSSLRSEDTAVYYCARSYGNYPLMDYWGQGTTVTVSS VL: QIVLTQSPAILSLSPGERATLSCSASSSVTSNYLYWYQQKPGSSPKLLIYSTSNLASGVPARFSGSGSGTSYTLTISSLEAEDAASYFCHQWSSYPPTFGSGTKLEIKR | – | – | IC50 [6]: 0.042 µg/mL |
| F6BP2D4 mouse monoclonal anti-cMET antibody (antibody, V domains shown, Mouse hybridoma antibody) VH: QVQLQQSGAELAKPGASVKMSCKASGYTFTSYWMHWVKQRPGQGLEWIGYINPSTDYIEYNQKFKDKATLTAGKSSSTAYMQLSSLTSEDSAVYYCARSYGNFPLMDYWGQGTSVTVSS VL: QIVLTQSPAIMSASPGEKVTLTCSASSSVSSNYLYWYQQKPGSSPKLWIYSTSNLASGVPVRFSGSGSGTSYSLTISSMEAEDAASYFCHQWSSYPPTFGSGTKLEIKR | – | – | EC50 (read off the curve) [4]: ~0.2 µg/mL; EC50 (read off the curve) [5]: ~0.2 µg/mL |
| humanized P3D12 antibody, HC SEQ ID NO: 108 (P3D12 VH-cdr) / LC SEQ ID NO: 47 (P3D12 VL-fra) (antibody, V domains shown) VH: QVQLVQSGAEVKKPGASVKVSCKASGYTFTSYWMHWVKQAPGQGLDWIGYIKPSTDNTEYNQKFKDKATLTADKSTSTAYMELSSLRSEDTAVYYCARSYGNYPLMDYWGQGTTVTVSS VL: QIVLTQSPAILSLSPGERATLSCSASSSVTSNYLYWYQQKPGSSPKLLIYSTSNLASGVPARFSGSGSGTSYTLTISSLEAEDAASYFCHQWSSYPPTFGSGTKLEIKR | 0.7 | 0.9 | – |
| humanized P3D12 antibody, HC SEQ ID NO: 107 (P3D12 VH-abb/sdr) / LC SEQ ID NO: 47 (P3D12 VL-fra) (antibody, V domains shown) VH: QVQLVQSGAEVKKPGASVKVSCKASGYTFTSYWMHWVKQAPGQGLDWMGYIKPSTDNTEYAQKFQGRVTLTADKSTSTAYMELSSLRSEDTAVYYCARSYGNYPLMDYWGQGTTVTVSS VL: QIVLTQSPAILSLSPGERATLSCSASSSVTSNYLYWYQQKPGSSPKLLIYSTSNLASGVPARFSGSGSGTSYTLTISSLEAEDAASYFCHQWSSYPPTFGSGTKLEIKR | 1 | 0.5 | – |
| humanized P3D12 antibody, HC SEQ ID NO: 108 (P3D12 VH-cdr) / LC SEQ ID NO: 48 (P3D12 VL-abb/sdr) (antibody, V domains shown) VH: QVQLVQSGAEVKKPGASVKVSCKASGYTFTSYWMHWVKQAPGQGLDWIGYIKPSTDNTEYNQKFKDKATLTADKSTSTAYMELSSLRSEDTAVYYCARSYGNYPLMDYWGQGTTVTVSS VL: QIVLTQSPATLSLSPGERATLSCRASQSVTSNYLYWYQQKPGSSPRLLIYSTSNLASGVPARFSGSGSGTDYTLTISRLEPEDFASYFCHQWSSYPPTFGSGTKLEIKR | 1.3 | 2.7 | – |
| humanized P3D12 antibody, HC SEQ ID NO: 105 (P3D12 VH-fra) / LC SEQ ID NO: 47 (P3D12 VL-fra) (antibody, V domains shown) VH: QVQLQQSGAEVKKPGASVKVSCKASGYTFTSYWMHWVKQRPGQGLDWIGYIKPSTDNTEYNQKFKDRVTLTADKSTSTAYMQLSNLISEDTAVYYCARSYGNYPLMDYWGQGTSVTVSS VL: QIVLTQSPAILSLSPGERATLSCSASSSVTSNYLYWYQQKPGSSPKLLIYSTSNLASGVPARFSGSGSGTSYTLTISSLEAEDAASYFCHQWSSYPPTFGSGTKLEIKR | 1.7 | 1.4 | – |
| F6AP8E2 mouse monoclonal anti-cMET antibody (antibody, V domains shown, Mouse hybridoma antibody) VH: EVQLQQSGAELVRPGALVKLSCKASGFNINDYFMHWVKQRPEQGLEWIGWIDPENGNTIYDPKFQGKASITADTSSNTAYLQLSSLTSEDTAVYYCARGGNYLRESYYYAMDYWGQGTSVTVSS VL: DIVMTQSPKSMSMSVGERVTLSCKASENVGTYVSWYQQKPDQSPKLLIYGASNRYTGVPDRFTGSGSATDFTLTISSVQAEDLADYHCGQSYSYPLTFGAGTKLELKR | – | – | Kd [1]: 180 pM; EC50 (read off the curve) [4]: ~0.2 µg/mL; EC50 (read off the curve) [5]: ~0.2 µg/mL |
